Test results reported in article PMC3592454.

B1: PR (WT) (dsDNA)
DNA 1: GCGTGTTGACTATTTTACCTCTGGCGGTGATAATGGTTGCATGTACTAAGGAGGTTGTATGGAACAACGCA
DNA 2: TGCGTTGTTCCATACAACCTCCTTAGTACATGCAACCATTATCACCGCCAGAGGTAAAATAGTCAACACGC
modifications: 5'-C6-amino linker
B2: P1 galP1+P2-P3+ (dsDNA)
DNA 1: TTTTCGCATCTTTTCGTTGCTATGGTTATTTCATACCATAAGCCTAATGGAGCGAATTATGAG
DNA 2: CTCATAATTCGCTCCATTAGGCTTATGGTATGAAATAACCATAGCAACGAAAAGATGCGAAAA
modifications: 5'-C6-amino linker

Biological target: RNA polymerase holoenzyme with sigma70 Q437A (Escherichia coli, UniProt P00579;P0A7Z4;P0A8V2;P0A8T7;P0A800 1-613;1-329;1-1342;1-1407;2-91, Q437A)
Test: fluorescence anisotropy

Binder | Kd
B1 | 14.9 nM
B2 | 0.76 ± 0.1 nM
